Experimental data as given in article PMC5352116.

Biological target: Death Receptor 5 (DR5) (human (endogenous in MCF-10A-Tr)), O14763
Experiment: co-IP; DISC analysis: MCF-10A-Tr cells untreated or treated with QC, TRAIL or TRAIL (10 ng/mL, 3 h) then QC (2.5 uM, 48 h); RIPA lysate, pre-cleared with sepharose-4B beads, immunoprecipitated with anti-DR5 antibody at 4°C overnight; western blot
Conditions: remark: other sources report otherwise

B1: CASPASE 8, Q14790 1-479 (enzyme)
chain: MDFSRNLYDIGEQLDSEDLASLKFLSLDYIPQRKQEPIKDALMLFQRLQEKRMLEESNLSFLKELLFRINRLDLLITYLNTRKEEMERELQTPGRAQISAYRVMLYQISEEVSRSELRSFKFLLQEEISKCKLDDDMNLLDIFIEMEKRVILGEGKLDILKRVCAQINKSLLKIINDYEEFSKERSSSLEGSPDEFSNGEELCGVMTISDSPREQDSESQTLDKVYQMKSKPRGYCLIINNHNFAKAREKVPKLHSIRDRNGTHLDAGALTTTFEELHFEIKPHDDCTVEQIYEILKIYQLMDHSNMDCFICCILSHGDKGIIYGTDGQEAPIYELTSQFTGLKCPSLAGKPKVFFIQACQGDNYQKGIPVETDSEEQPYLEMDLSSPQTRYIPDEADFLLGMATVNNCVSYRNPAEGTWYIQSLCQSLRERCPRGDDILTILTEVNYEVSNKDDKKNMGKQMPQPTFTLRKKLVFPSD
Binder B1 has a fold level in the DISC (anti-DR5 immunoprecipitate), TRAIL+QC treated against untreated cells of 7 fold.
